Results as given in US20060280804A1 (CONSEJO SUPERIOR DE INVESTIGACIONES CIENTIFCAS, published 2006).

biological target: T1, angiotensin converting enzyme (ACE, EC 3.4.15.1, Sigma); experiment: cell-based or functional assay
T1 sequence (P12822 whole entry, species assumed, looked up): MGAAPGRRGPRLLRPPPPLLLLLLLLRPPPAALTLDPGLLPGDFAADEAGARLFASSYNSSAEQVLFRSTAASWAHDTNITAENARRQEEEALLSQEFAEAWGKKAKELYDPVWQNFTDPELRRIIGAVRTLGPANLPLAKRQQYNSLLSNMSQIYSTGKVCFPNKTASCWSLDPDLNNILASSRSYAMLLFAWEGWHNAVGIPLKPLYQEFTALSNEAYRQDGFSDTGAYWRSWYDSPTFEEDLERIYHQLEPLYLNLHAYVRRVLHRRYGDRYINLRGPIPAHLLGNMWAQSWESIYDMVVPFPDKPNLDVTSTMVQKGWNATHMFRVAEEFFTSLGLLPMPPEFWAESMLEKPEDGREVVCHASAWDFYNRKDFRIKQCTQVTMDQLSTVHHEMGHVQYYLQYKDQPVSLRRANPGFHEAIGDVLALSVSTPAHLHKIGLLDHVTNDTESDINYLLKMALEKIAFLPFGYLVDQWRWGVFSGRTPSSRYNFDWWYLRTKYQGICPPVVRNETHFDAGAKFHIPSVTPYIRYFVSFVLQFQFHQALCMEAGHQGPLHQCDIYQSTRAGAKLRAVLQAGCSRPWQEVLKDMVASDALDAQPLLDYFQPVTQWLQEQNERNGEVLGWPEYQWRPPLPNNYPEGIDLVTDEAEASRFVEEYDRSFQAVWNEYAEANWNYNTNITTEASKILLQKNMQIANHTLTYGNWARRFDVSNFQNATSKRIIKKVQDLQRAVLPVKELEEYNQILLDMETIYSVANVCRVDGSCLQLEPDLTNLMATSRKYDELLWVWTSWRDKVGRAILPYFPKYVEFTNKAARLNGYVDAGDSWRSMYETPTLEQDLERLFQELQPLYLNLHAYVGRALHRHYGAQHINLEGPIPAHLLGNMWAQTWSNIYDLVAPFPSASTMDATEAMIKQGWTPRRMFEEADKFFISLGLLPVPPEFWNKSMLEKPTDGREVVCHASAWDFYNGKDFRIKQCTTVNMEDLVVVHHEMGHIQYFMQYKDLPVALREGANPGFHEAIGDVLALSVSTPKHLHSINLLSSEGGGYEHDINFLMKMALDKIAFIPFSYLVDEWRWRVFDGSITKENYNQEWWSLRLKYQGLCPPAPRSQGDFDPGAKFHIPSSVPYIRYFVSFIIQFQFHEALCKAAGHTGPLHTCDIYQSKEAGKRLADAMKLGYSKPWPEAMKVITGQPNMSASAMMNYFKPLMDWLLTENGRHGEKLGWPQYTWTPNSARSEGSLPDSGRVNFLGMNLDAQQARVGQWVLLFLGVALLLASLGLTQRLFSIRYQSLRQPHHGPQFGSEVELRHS

Row | Binder | ACEI activity, IC50 [µM]
1 | VLLPDEVSGL [VLLPDEVSGL, synthetic peptide, ovalbumin 243-252] | > 1000
2 | RADHPFL [RADHPFL (SEQ. ID. No 3), synthetic peptide, ovalbumin 359-365] | 6.2
3 | ELIN [ELIN, synthetic peptide, ovalbumin 144-147] | > 1000
4 | RDILNQ [RDILNQ (SEQ. ID. No 7), synthetic peptide, ovalbumin 84-89] | 436
5 | ESIINF [ESIINF, synthetic peptide, ovalbumin 256-261] | > 1000
6 | SALAM [SALAM (SEQ. ID. No 8), synthetic peptide, ovalbumin 36-40] | 229

Second part, the binder after the results:

Row | ACEI activity, IC50 [µM] | Binder
7 | 174 | YQIGL [YQIGL (SEQ. ID. No 1), synthetic peptide, ovalbumin 212-216]
8 | 4.7 | YAEERYPIL [YAEERYPIL (SEQ. ID. No 6), synthetic peptide, ovalbumin 106-114]
9 | > 1000 | YRGGLEPINF [YRGGLEPINF, synthetic peptide, ovalbumin 125-134]
